{"source": "patent US12365875B2", "about": "“Methods for generating skeletal muscle progenitor cells” (The Regents of the University of California, priority 2017, dated 2025)", "tested_on": "hPSC-SMPCs", "assay": "Passaging and expansion of hPSC-SMPCs with added factors, gene expression", "type": "cell-based, human", "description": "At day 50, myogenic genes PAX7, MYF5, MYOD, MYOG, and MYH3 were measured by QPCR and expressed as fold-change versus day 35 of directed differentiation. […] Subsequently, IGF-1 was added to N2 media in all experiments (FIGS. 5-8, 10A-10D, 10F, 11, and 12A-12E). […] Subsequently, FGF2 was added to SkBM-2 media in experiments (FIGS. 5-8, 10A-10D, 10F, 11, and 12A-12E).\nHiPSC-SMPC subpopulations enrich for PAX7 but activate and increase expression of MYOD after passaging. […] (FIG. 9A)."}
{"molecule": "WNT7A: Wnt family member added to SKBM2 expansion media (protein, UniProt O00755 32-349, looked up) Protein Wnt-7a: LGASIICNKIPGLAPRQRAICQSRPDAIIVIGEGSQMGLDECQFQFRNGRWNCSALGERTVFGKELKVGSREAAFTYAIIAAGVAHAITAACTQGNLSDCGCDKEKQGQYHRDEGWKWGGCSADIRYGIGFAKVFVDAREIKQNARTLMNLHNNEAGRKILEENMKLECKCHGVSGSCTTKTCWTTLPQFRELGYVLKDKYNEAVHVEPVRASRNKRPTFLKIKKPLSYRKPMDTDLVYIEKSPNYCEEDPVTGSVGTQGRACNKTAPQASGCDLMCCGRGYNTHQYARVWQCNCKFHWCCYVKCNTCSERTEMYTCK", "values": [{"measurement": "stemness factors HEYL and CJUN", "setting": "passaged SMPCs in SKBM2", "value": "stabilize or increase stemness factors"}, {"measurement": "PAX7 expression during expansion", "setting": "passaged SMPCs, compared to SKBM2 alone", "value": "rescues PAX7 expression"}]}
